The record followed here is patent US20180057604A1 (Genentech, published 2018).

Like-named read-outs stand apart in the source and are kept apart here. A value given as a limit tells only on which side of the number the result lay.

In test [1] the target is T1, BACE1 in primary mouse cortical neurons (mouse, UniProt P56818 46-501). Briefly: cell-based or functional assay.
In test [2] the target is T2, human BACE1 ECD.
T2 construct: analyte of the Octet assay (200 nM) and enzyme of the first short substrate assay; also called human BACE1 extracellular domain
T2 sequence (single chain, as listed by the source limits assumed): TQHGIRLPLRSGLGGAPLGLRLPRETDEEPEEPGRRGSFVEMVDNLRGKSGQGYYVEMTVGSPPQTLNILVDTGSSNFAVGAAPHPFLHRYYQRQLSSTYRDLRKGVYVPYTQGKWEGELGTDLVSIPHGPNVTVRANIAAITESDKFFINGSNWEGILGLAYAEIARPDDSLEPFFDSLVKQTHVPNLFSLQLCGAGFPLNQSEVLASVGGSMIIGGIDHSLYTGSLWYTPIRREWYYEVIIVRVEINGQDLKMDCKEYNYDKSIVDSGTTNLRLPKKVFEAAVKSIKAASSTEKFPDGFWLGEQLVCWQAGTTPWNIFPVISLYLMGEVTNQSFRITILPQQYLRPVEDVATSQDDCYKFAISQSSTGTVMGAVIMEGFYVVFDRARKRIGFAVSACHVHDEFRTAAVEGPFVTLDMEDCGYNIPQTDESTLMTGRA
Briefly: Octet, pH 5.0.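 Also: antibodies captured on anti-human capture sensor tips, dissociation monitored in PBS with BSA buffer, kinetics fitted with a one-to-one binding model.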 For orientation: BLI is a label-free optical method that tracks binding on a fibre tip over time.
Description: (§1) Anti-BACE1 antibodies were loaded onto anti-human capture (AHC) sensors (tips) followed by 60 seconds baseline in assay buffer. […] Tips were transferred to assay buffer for 5 minutes, 30 minutes, or 120 minutes depending on the off-rate, for off-rate measurement. Assay buffer was either PBS+0.1% BSA, pH 7.5; or PBS+0.1% BSA, pH 5.0. Kinetics were analyzed using a 1:1 binding model.

In test [3] the target is T3, murine BACE1 ECD.
T3 construct: analyte of the Octet assay (200 nM) and enzyme of the first short substrate assay
T3 sequence (single chain, as listed by the source limits assumed): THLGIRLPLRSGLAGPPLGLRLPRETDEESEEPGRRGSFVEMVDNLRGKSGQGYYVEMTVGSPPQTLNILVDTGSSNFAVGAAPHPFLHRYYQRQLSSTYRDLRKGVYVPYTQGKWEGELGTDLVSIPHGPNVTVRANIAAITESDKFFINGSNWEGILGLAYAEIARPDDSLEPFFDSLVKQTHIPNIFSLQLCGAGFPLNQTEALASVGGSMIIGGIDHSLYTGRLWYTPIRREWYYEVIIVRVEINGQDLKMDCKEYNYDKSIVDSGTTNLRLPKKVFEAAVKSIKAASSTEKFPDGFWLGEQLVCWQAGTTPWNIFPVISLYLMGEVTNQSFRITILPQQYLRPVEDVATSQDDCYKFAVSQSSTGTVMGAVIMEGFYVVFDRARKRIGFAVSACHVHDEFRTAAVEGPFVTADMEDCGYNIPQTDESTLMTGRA
Briefly: Octet, pH 5.0.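 Also: antibodies captured on anti-human capture sensor tips, dissociation monitored in PBS with BSA buffer, kinetics fitted with a one-to-one binding model.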
Description: as §1

The target of test [4] is T2, human BACE1 ECD. Briefly: Octet, pH 7.5.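 Also: antibodies captured on anti-human capture sensor tips, dissociation monitored in PBS with BSA, Kd obtained from kinetic fit to a one-to-one binding model.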
Description: as §1
In test [5] the target is T3, murine BACE1 ECD. Briefly: Octet, pH 7.5.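 Also: antibodies captured on anti-human capture sensor tips, dissociation monitored in PBS with BSA, Kd obtained from kinetic fit to a one-to-one binding model.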
Description: as §1
Test [6] has as its target T4, human BACE1 (R&D Systems) (human, UniProt P56817).
T4 construct: recombinant, commercial (R&D Systems)
Briefly: SPR (Biacore). (In SPR one partner is held on a chip, and binding of the other changes the refractive index at the surface.)
Description: Binding affinities of certain anti-BACE1 IgGs were measured by surface plasmon resonance (SRP) using a BIAcore™-T100 instrument. […] Association rates (kon) and dissociation rates (koff) were calculated using a simple one-to-one Langmuir binding model (BIAcore Evaluation Software version 3.2). The equilibrium dissociation constant (KD) was calculated as the ratio koff/kon.

Test [7] concerns the target T1, BACE1 in primary mouse cortical neurons. Put plainly: cell-based or functional assay. This is another data set of the same source.
Test [8] deals with T5, human TfR extracellular domain with N-terminal His tag (human, UniProt P02786 89-760).
T5 construct: Biotinylated in some assays; also called huTfR; HuTfR
Put plainly: SPR, Fab.
Description: (§2) Antibody affinities were measured using surface plasmon resonance (“SPR”) (Biacore™, GE Healthcare). Anti-His antibody (Qiagen) was coupled onto four different flow cells of a BIACORE™ CM5 sensor chip (Biacore, Inc., Piscataway, N.J.) at between 6000 and 8000 RU. Immobilization was achieved by random coupling through amino groups using a protocol provided by the manufacturer. 10×HBS-P (Biacore, Inc., Piscataway, N.J.) was diluted in water and served as the dilution and running buffer. Purified human or cyno TfR was captured, followed by a 3-fold dilution series of IgG or Fab that was injected at a flow rate of 30 ml/min using the single cycle kinetics method. Affinity constants were determined using a simple 1:1 Langmuir binding model or using a steady state model when kₒₙ or koff was beyond the detection limit. The equilibrium dissociation constant (KD) was calculated as the ratio of association rate constant (kₒₙ) and dissociation rate constant (koff).
(§3) These variants were screened as IgG by ELISA and SPR to identify positions important for binding to human and cyno TfR; the monovalent affinity of selected variants as Fab was also determined. […] Plates were washed with PBS/0.05% Tween 20 and blocked using Superblock blocking buffer in PBS (Thermo Scientific, Hudson, N.H.). Supernatants containing expressed IgG were diluted serially 1:5 and added to the plate for 1 h. […] Plates were washed with PBS/0.05% Tween 20 and 1:1000 diluted HRP-Goat-anti kappa (Southern Biotech) was added the plate and incubated for 1 h at room temperature. Plates were washed with PBS/0.05% Tween 20 and detected using TMB substrate (BioFX Laboratories, Owings Mills). Binding was also assessed by SPR, as described above.

The target of test [9] is T6, cyno TfR extracellular domain (analogous construct to human TfR ecd) (cynomolgus monkey, UniProt Q5RDH6 87-760 (Pongo abelii entry)).
T6 construct: also called cynoTfR ecd
T6 chain: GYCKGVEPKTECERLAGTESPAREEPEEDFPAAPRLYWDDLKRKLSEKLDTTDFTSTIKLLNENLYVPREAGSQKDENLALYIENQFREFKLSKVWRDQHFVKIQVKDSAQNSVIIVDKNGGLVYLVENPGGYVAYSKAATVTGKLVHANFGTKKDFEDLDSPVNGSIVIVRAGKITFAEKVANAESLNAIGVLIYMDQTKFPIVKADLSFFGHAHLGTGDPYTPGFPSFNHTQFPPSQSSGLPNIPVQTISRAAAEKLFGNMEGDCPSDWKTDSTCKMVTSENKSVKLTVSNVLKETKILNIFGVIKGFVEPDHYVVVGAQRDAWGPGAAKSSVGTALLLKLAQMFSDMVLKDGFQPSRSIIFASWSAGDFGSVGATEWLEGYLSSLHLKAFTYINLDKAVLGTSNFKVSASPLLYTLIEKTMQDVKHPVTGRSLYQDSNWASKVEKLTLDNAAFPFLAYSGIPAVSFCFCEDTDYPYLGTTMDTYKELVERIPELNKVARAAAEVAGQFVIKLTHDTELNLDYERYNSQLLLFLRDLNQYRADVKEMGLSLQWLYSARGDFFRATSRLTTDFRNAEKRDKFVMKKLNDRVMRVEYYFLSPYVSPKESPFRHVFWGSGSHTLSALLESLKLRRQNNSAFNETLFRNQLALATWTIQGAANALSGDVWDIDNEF
Put plainly: SPR, Fab.
Description: as §2, §3

The target of test [10] is T6, cyno TfR extracellular domain …. Briefly: SPR, KD on cyno TfR over KD on human TfR.
Description: as §2
(§4) In both cases, the SPR experiments were performed as described above.
Test [11] addresses T5, human TfR extracellular domain with …. Put plainly: SPR, TfR captured by anti-His, Fab injected.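 Also: single cycle kinetics with a Fab dilution series, fitted by a one-to-one Langmuir model or a steady state model, KD taken as koff over kon.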
Target sequence in this assay (P02786 89-760 G142S): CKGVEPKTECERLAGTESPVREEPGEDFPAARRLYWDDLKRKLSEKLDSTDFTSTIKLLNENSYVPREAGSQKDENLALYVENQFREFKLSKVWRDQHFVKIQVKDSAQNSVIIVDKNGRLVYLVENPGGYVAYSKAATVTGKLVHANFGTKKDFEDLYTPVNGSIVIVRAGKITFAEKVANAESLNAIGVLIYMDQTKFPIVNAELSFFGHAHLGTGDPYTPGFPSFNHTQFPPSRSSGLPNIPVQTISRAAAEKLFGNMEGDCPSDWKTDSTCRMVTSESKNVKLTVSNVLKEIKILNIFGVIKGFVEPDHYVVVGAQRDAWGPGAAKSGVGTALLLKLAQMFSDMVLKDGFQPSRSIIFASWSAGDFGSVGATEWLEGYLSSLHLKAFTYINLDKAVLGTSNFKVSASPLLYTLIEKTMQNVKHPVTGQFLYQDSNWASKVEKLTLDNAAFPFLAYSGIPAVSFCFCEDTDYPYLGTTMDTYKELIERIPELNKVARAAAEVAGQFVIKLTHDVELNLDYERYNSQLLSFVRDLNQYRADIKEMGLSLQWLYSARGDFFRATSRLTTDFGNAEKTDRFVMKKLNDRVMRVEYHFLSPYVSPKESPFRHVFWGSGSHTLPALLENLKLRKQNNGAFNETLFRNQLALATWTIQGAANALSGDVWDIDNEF
Description: as §2, §4
Test [12] concerns the target T6, cyno TfR extracellular domain …. Briefly: SPR, TfR captured by anti-His, Fab injected.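 Also: single cycle kinetics with a Fab dilution series, fitted by a one-to-one Langmuir model or a steady state model, KD taken as koff over kon.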
Description: as §2, §4
For test [13], the target named is T5, human TfR extracellular domain with …. Briefly: SPR, IgG.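 Also: His-tagged TfR captured via immobilized anti-His antibody on a CM5 chip, antibody injected in 3-fold dilution series by single cycle kinetics, 1:1 Langmuir or steady-state fit.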
Target sequence in this assay (P02786 89-760 G142S): as above
Description: as §2, §4
The target of test [14] is T6, cyno TfR extracellular domain …. Put plainly: SPR, IgG.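 Also: His-tagged TfR captured via immobilized anti-His antibody on a CM5 chip, antibody injected in 3-fold dilution series by single cycle kinetics, 1:1 Langmuir or steady-state fit.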
Description: as §2, §4
Test [15] deals with T5, human TfR extracellular domain with …. Briefly: ELISA, IgG.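 Also: ELISA of IgG-containing supernatants tested in 1:5 serial dilutions for 1 h, bound antibody read out with HRP anti-kappa antibody and TMB substrate.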
Target sequence in this assay (P02786 89-760 G142S): as above
Description: (§5) Affinity variants were generated by making individual alanine substitutions in CDR-L3 or CDR-H3 using standard techniques. These variants were screened as IgG by ELISA and SPR to identify positions important for binding to human and cyno TfR; the monovalent affinity of selected variants as Fab was also determined. […] Plates were washed with PBS/0.05% Tween 20 and blocked using Superblock blocking buffer in PBS (Thermo Scientific, Hudson, N.H.). Supernatants containing expressed IgG were diluted serially 1:5 and added to the plate for 1 h. […] Plates were washed with PBS/0.05% Tween 20 and 1:1000 diluted HRP-Goat-anti kappa (Southern Biotech) was added the plate and incubated for 1 h at room temperature. Plates were washed with PBS/0.05% Tween 20 and detected using TMB substrate (BioFX Laboratories, Owings Mills).
Test [16] addresses T6, cyno TfR extracellular domain …. Put plainly: ELISA, IgG.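 Also: ELISA of IgG-containing supernatants tested in 1:5 serial dilutions for 1 h, bound antibody read out with HRP anti-kappa antibody and TMB substrate.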 Background: In an ELISA, binding on a coated surface is turned into a signal by an enzyme label.
Description: as §5
The target of test [17] is T5, human TfR extracellular domain with …. Briefly: SPR SCK 1:1 fit, IgG.
Description: as §2, §3
For test [18], the target named is T6, cyno TfR extracellular domain …. Briefly: SPR SCK 1:1 fit, IgG.
Description: as §2, §3
The target in test [19] is T5, human TfR extracellular domain with …. Put plainly: ELISA, immobilized huTfR, with and without 6.3 uM holo-Tf.
Description: Plates were washed with PBS/0.05% Tween 20 and blocked using Superblock blocking buffer in PBS (Thermo Scientific, Hudson, N.H.). […] Plates were washed with PBS/0.05% Tween 20 and 1:1000 diluted HRP-Goat-anti human Fcγ (Jackson ImmunoResearch) was added to the plate and incubated for 1 h at room temperature. Plates were washed with PBS/0.05% Tween 20 and detected using TMB substrate (BioFX Laboratories, Owings Mills).
The target is the same in test [20]. Put plainly: SPR steady state, IgG.
Description: as §2, §3
The target in test [21] is T6, cyno TfR extracellular domain …. Briefly: SPR steady state, IgG.
Description: as §2, §3
In test [22] the target is T5, human TfR extracellular domain with …. Put plainly: ELISA.
Target sequence in this assay (P02786 89-760 G142S): as above
Test [23] concerns the target T7, human TfR, full length, on cells (human, UniProt P02786 1-760).
T7 construct: also called human TfR transiently expressed in 293 cells; TfR on HEL cells
Briefly: FACS, 293 cells, 1 uM holo-Tf.
Description: (§6) Briefly, FACS analysis was performed using 293 cells transfected with full length human or cyno TfR using lipofectamin 2000 plus (Invitrogen) 48-72 h before FACS analysis. […] Cells were washed twice with FACS buffer, 50 μl of PE-Goat-anti-murine Fcγ (Jackson ImmunoResearch) was added to cells and they were incubated on ice for 30 min. Cells were washed with FACS buffer and resuspended in 100 μl FACS buffer for analysis.

Test [24] deals with T7, human TfR, full length, on cells. Put plainly: FACS, 293 cells, 1 uM holo-Tf. This is another data set of the same source.
Description: as §6

T1 sequence (P56818 46-501): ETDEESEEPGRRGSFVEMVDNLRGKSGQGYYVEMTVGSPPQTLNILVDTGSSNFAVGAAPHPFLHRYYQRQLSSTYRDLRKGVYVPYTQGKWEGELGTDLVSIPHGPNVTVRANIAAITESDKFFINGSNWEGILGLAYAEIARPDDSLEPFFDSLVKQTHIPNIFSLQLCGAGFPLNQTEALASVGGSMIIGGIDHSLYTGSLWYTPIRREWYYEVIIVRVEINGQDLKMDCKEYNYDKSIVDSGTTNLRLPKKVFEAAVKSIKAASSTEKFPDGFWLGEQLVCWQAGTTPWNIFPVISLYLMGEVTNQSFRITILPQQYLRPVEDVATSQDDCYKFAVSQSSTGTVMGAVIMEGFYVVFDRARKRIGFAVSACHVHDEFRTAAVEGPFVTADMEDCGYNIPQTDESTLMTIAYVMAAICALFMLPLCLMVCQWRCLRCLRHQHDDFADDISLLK
T4 sequence (P56817 22-457 limits assumed): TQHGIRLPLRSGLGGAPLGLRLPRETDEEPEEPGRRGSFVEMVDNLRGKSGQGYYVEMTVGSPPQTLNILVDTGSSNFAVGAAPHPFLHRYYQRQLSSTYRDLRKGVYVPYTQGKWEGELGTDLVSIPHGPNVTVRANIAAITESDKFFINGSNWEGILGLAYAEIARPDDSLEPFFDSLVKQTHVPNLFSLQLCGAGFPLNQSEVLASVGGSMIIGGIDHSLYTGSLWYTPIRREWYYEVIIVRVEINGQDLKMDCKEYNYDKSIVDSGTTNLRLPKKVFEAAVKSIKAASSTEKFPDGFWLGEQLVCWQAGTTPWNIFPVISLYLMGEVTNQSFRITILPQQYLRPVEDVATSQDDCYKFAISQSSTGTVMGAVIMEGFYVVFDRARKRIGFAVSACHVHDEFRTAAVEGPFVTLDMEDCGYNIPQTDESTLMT

B1: anti-BACE1 antibody 6266 (antibody, V domains shown)
VH: EVQLVQSGAEVKKPGSSVKVSCKASGGTLSGYGVSWVRQAPGQGLEWMGNIIPGFGTANYAQKFQGRVTITADESTSTAYMELSSLRSEDTAVYYCARSGGTKYGMLDVWGQGTMVTVSS
VL: EIVMTQSPATLSVSPGERATLSCRASQSVSSNLAWYQQKPGQAPRLLIYGASTRATGIPARFSGSGSGTEFTLTISSLQSEDFAVYYCQQLILWPPRTFGGGTKVEIK
notes: Fully human antibody
For the molecule B1, the “IC50, inhibition of Abeta x-40 production in primary mouse cortical neurons” value in test [1] was found to be 1.7 nM. Moreover, the Kd in test [2] is under 0.24 nM; in [3], 0.32 nM; in test [4], under 0.3 nM; in [5] it was under 0.31 nM; in test [6], 1.12 nM. The “IC50, Abeta x-40 in mouse cortical neurons” value in test [7] came out at 1.66 nM. Moreover, the “maximal % inhibition of Abeta x-40” value in [7] amounted to 87%.

B2: hu7A4.v15.Fab (Fab, V domains shown)
VH: EVQLVQSGAEVKKPGASVKVSCKGSGYTFTDYAMHWVRQAPGQGLEWMGGISTYFGRTNYNQKFKGRVTMTVDTSISTAYMELSRLRSDDTAVYYCARGLSGNYVMDYWGQGTTVTVSS
VL: DIVMTQSPDSLAVSLGERATINCRASESVDSYGNSFMHWYQQKPGQPPKLLIYRASNLESGVPDRFSGSGSRTDFTLTISSLQAEDVAVYYCQQSNEAPPTFGQGTKLEIK
notes: Fab
On to B2, for which the Kd in test [8] was 0.4 nM; in [9], 4.3 nM. Besides, the Cy/hu ratio in test [10] worked out at 11. For the same molecule, the koff in [11] came to 0.000317 s⁻¹; in test [12], 0.00162 s⁻¹. Further, the on-rate constant (kon) in [11] is 910000 M⁻¹ s⁻¹; in [12], 378000 M⁻¹ s⁻¹.

B3: hu7A4.v15 IgG (antibody, V domains shown)
VH: EVQLVQSGAEVKKPGASVKVSCKGSGYTFTDYAMHWVRQAPGQGLEWMGGISTYFGRTNYNQKFKGRVTMTVDTSISTAYMELSRLRSDDTAVYYCARGLSGNYVMDYWGQGTTVTVSS
VL: DIVMTQSPDSLAVSLGERATINCRASESVDSYGNSFMHWYQQKPGQPPKLLIYRASNLESGVPDRFSGSGSRTDFTLTISSLQAEDVAVYYCQQSNEAPPTFGQGTKLEIK
notes: Human IgG; also called humanized 7A4.v15
With B3, the Kd in test [13] amounted to 0.561 nM; in [14] it was 7.8 nM; in test [17], 0.58 nM; in [18], 7.8 nM. For the same molecule, the EC50 was 0.0148 mg/L in [15] and 0.0142 mg/L in [16]. For the same molecule, the half-maximal effective concentration (EC50 (read off the curve)) in test [19] was about 0.005 mg/L.

B4: Q90A (Fab, V domains shown)
VH: EVQLVQSGAEVKKPGASVKVSCKGSGYTFTDYAMHWVRQAPGQGLEWMGGISTYFGRTNYNQKFKGRVTMTVDTSISTAYMELSRLRSDDTAVYYCARGLSGNYVMDYWGQGTTVTVSS
VL: DIVMTQSPDSLAVSLGERATINCRASESVDSYGNSFMHWYQQKPGQPPKLLIYRASNLESGVPDRFSGSGSRTDFTLTISSLQAEDVAVYYCQASNEAPPTFGQGTKLEIK
notes: also called 7A4.v15 Q90A (CDR-L3) Fab
As for B4, the Kd is 130 nM in [8] and 760 nM in [9].

B5: N99A (antibody, V domains shown)
VH: EVQLVQSGAEVKKPGASVKVSCKGSGYTFTDYAMHWVRQAPGQGLEWMGGISTYFGRTNYNQKFKGRVTMTVDTSISTAYMELSRLRSDDTAVYYCARGLSGAYVMDYWGQGTTVTVSS
VL: DIVMTQSPDSLAVSLGERATINCRASESVDSYGNSFMHWYQQKPGQPPKLLIYRASNLESGVPDRFSGSGSRTDFTLTISSLQAEDVAVYYCQQSNEAPPTFGQGTKLEIK
notes: also called 7A4.v15 N99A (CDR-H3) IgG; copies: 2 + 2
B5: the concentration for a half-maximal effect (EC50) was 0.017 mg/L in test [15] and 0.0822 mg/L in [16]. Moreover, the Kd came to 11 nM in test [17], 22 nM in [18], 19 nM in test [20] and 77 nM in test [21].

B6: Q90A (antibody, V domains shown)
VH: EVQLVQSGAEVKKPGASVKVSCKGSGYTFTDYAMHWVRQAPGQGLEWMGGISTYFGRTNYNQKFKGRVTMTVDTSISTAYMELSRLRSDDTAVYYCARGLSGNYVMDYWGQGTTVTVSS
VL: DIVMTQSPDSLAVSLGERATINCRASESVDSYGNSFMHWYQQKPGQPPKLLIYRASNLESGVPDRFSGSGSRTDFTLTISSLQAEDVAVYYCQASNEAPPTFGQGTKLEIK
notes: also called 7A4.v15 Q90A (CDR-L3) IgG
As to B6, the values for the EC50 in [15] and in test [16] were 0.0093 mg/L and 0.181 mg/L, respectively. In addition, the dissociation constant Kd in test [17] is 16 nM; in test [18], 570 nM; in test [20] it was 41 nM; in [21], 329 nM.

B7: 15D2 (antibody, V domains shown)
VH: QVQLQQSGPELVRPGVSVKISCKGSGYTVTDYAMHWVKQSHAKSLEWIGVISFYSGKTNYNQKFMGKATMTVDKSSSTAYMELARLTSEDSAIYYCARGLSGNYVMDYWGQGTSVTVSS
VL: DIVLTQSPASLAVSLGQRATISCRASESVDSYGNSFMHWYQQKPGQPPKLLIYRASNLESGIPARFSGSGSRTDFTLTINPVEADDVATYYCQQSNEGPPTFGGGTKLEIK
notes: Mouse hybridoma antibody; also called clone 15D2
Consider B7, for which the binding result in [22] and in test [23] was “binds” in each case.

B8: 13C3 (antibody, V domains shown)
VH: QVQLQQPGAELVKPGASVKLSCKASGYTFASYWMHWVKQRPGQGLEWIGEINPINGRTNYSEKFKKKATLTVDKSSSTAYMQLSSLTSEDSAVYYCARGTRAYHYWGQGTSVTVSS
VL: DIQMTQSPASLSVSVGETVTITCRASDNIYSNLAWYQQKQGKSPQLLVYAATNLADGVPSRFSGSGSGTQYSLKINSLQSEDFGSYYCQHFWGTPLMFGSGTKLELK
notes: Mouse hybridoma antibody; also called clone 13C3
For B8, the binding result in test [22] and in [24] was “binds” each time.

B9: 16G5 (antibody, V domains shown)
VH: QVQLQQPGAELVRPGAAVKLSCKASGYTFTSYWMHWVKQRPGQGLEWIGEINPTNGRTNYNENFKSKATLTVDKSSSTAYMQLSSLTSEDSAVYYCARGTRAYHFWGQGTSVTVSS
VL: DIQLTQTPASLSVSVGETVTITCRASENIYSNLAWYQQKQGKSPQLLVYAATDLADGVPSRFRGSGSGTQYSLKINSLQSEDFGSYYCQHFWGTPLTFGAGTKLELI
notes: Mouse hybridoma antibody; also called clone 16G5
With B9, the binding result in [22] and in test [24] was “binds” throughout.

B10: 4C2 (antibody, V domains shown)
VH: QVQLQQPGSELVRPGASVKLSCKASGYTFTSYWMHWVKQRHGQGLEWIGNIYPGSGSTKYDEKFKSKGTLTVDTSSSTAYMHLSSLTSEDSAVYYCTRGGYDSRAWFAHWGQGTLVTVSA
VL: DIVLTQSPASLAVSLGQRATISCRARQSVSTSSYSFMHWYQQKPGQPPKLLIKYASIQESGVPARFSGSGSGTDFTLNILPVEEEDTATYYCQHTWEIPFTFGSGTNLEIK
notes: Mouse hybridoma antibody; also called clone 4C2
Regarding B10, the binding result in test [22] and in test [23] was “binds” throughout.

The Kd is a measure of binding affinity in units of concentration. In general, koff refers to the rate constant with which the complex falls apart. In general, kon refers to a measure of how fast the partners come together. A low value points to slow association. In general, EC50 refers to the concentration that produces a half-maximal response. Low values mean greater potency, high ones weaker potency. What is called EC50 (read off the curve) is the concentration needed to bring the measured effect to its halfway point. A higher EC50 (read off the curve) goes with weaker potency.
